{"source": "patent US20080233097A1", "about": "“Phosphorylation Site Of Mitogen-Activated Protein Kinases, Modified Proteins And Applications” (UNIVERSIDAD AUTONOMA DE MADRID, priority 2005, published 2008)", "key": {"[1]": {"system": "β2-adrenergic (β2-AR) receptor", "test": "isoproterenol stimulation of HEK 293 cells with β2-AR, Flag-p38α and GRK2 (co-immunoprecipitation, anti-phospho-p38)", "type": "cell-based, human", "procedure": "48 hours after the transfection and after a 2 hour serum starvation, the cells were stimulated with the adrenergic agonist isoproterenol (ISO, 10 μM) for 5 or 10 minutes or they were not stimulated (0 min ISO). Likewise, cells without overexpressed β2-AR receptor were stimulated with 0.5 M NaCl for 15 minutes. The cells were solubilized in a buffer suitable for immunoprecipitation with the M2 anti-Flag antibody bound to agarose and after taking aliquots of these lysates (10%) for overexpression control (lysate panels) the immune complexes were incubated overnight at 4° C. The immunoprecipitated proteins (Ip anti-Flag) were resuspended in an electrophoresis breaking buffer and the bound proteins were resolved in a 10% SDS-polyacrylamide gel. […] The negative immunoprecipitation controls (Cneg) in the absence of Flag-p38α and of stimulation with 10 μM isoproterenol are also included in the figure. […] As described in A, non-specific immunoprecipitation controls (Cneg) of the M2 anti-Flag-agarose antibody were carried out.\nIn the GRK2 and Flag-p38α association experiments, a 1:1:1 ratio of GRK2 (or GRK2-K220R), Flag-p38α, and β2-adrenergic receptor was used (generally 1 μg of each per p60).\nThe stimulation of HEK293 cells with 10 μM isoproterenol (Sigma) was carried out at 37° C. in culture medium without serum. […]"}, "[2]": {"target": "T1, GRK2 (Bos taurus, UniProt P21146)", "T1 construct": "made in house; host or cells: Sf9 cells (baculovirus)", "T1 sequence (P21146 1-689)": "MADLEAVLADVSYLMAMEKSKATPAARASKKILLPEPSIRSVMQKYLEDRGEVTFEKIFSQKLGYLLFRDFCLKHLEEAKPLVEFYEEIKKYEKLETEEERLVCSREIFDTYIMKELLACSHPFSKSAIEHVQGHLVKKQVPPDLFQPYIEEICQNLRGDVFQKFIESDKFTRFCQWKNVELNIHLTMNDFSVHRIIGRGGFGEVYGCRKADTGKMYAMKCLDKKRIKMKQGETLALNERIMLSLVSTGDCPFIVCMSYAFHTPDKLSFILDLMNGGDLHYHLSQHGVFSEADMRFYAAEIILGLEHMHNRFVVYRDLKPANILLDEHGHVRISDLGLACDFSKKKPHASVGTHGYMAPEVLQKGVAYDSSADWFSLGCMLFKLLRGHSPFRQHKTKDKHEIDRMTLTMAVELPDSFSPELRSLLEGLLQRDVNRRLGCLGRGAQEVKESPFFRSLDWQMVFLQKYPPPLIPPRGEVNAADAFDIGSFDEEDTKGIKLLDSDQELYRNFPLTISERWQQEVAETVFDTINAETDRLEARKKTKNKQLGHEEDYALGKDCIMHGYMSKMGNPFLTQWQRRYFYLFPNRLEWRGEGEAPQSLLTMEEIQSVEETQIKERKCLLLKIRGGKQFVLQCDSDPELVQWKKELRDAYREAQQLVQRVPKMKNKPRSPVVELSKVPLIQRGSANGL", "test": "phosphorylation of p38 mutants and truncated proteins by GRK2 in vitro", "type": "biochemical", "details": "GST fusion proteins, 30 minutes at 30° C.", "protocol": "FIG. 6A: Proteins fused to GST (black rectangle in the protein schemes) were purified from bacteria transformed with the plasmids pGEX2T-p38α, pGEX4T-Mxi2 and pGEX4T-Mxi2Δ17: p38α, Mxi2 and Mxi2Δ17. The […] isoforms used as C-terminal truncated mutants for trying to limit the GRK2 phosphorylation site. […] Heparin (150 nM) was included as a specific GRK2 inhibitor. The reactions were stopped by adding SDS breaking buffer. The samples were resolved in 8% SDS-PAGE. For the purpose of assuring the inclusion of identical amounts of protein, they were first visualized in the gel by Coomassie Brilliant Blue (CBB) staining. Then the gel was dried and the radioactivity incorporated to the proteins (^32P) was detected. FIG. 6B: The truncated GST-280-360p38 protein, corresponding to the last 80 p38α amino acids, was generated by means of the Invitrogen Gateway system. Phosphorylation assays were carried out with Mxi2Δ17 as a p38 N-terminal, 280-360 p38 as C-terminal and with whole p38α in the same conditions as described in section A. The phosphorylation was detected by autoradiography (^32P) and controls of the amount of protein used in the assays were carried out concomitantly by Western blot with the anti-GST antibody. The presence of the GST-280-360p38 protein, which is not phosphorylated, is clearly observed. STD, mobility of standard molecular weight proteins.\nFIG. 9A: p38T123A and p38T123D proteins, fused to GST, were made by directed mutagenesis in the prokaryotic expression plasmids pGEX2T. The ability of the recombinant GST-p38T123A and GST-p38T123D proteins to be GRK2 substrates in comparison to the wild GST-p38WT protein and at the final concentrations indicated in the Figure was assayed. The upper panels represent the obtained phosphorylation (32 P) and the lower panels show, by anti-p38N WB, the amount of recombinant protein used in the assays. […]\nHeparin (150 nM) was included as a specific GRK2 inhibitor. […] Subsequently, the gel was dried and the radioactivity incorporated to the proteins (^32P) was detected. […]"}, "[3]": {"system": "MKK6CAM", "test": "p38 phosphorylation by MKK6CAM in vitro", "type": "biochemical", "details": "150 nM fusion protein, 40 ng MKK6CAM", "protocol": "(§1) The reactions were carried out at 30° C. for 30 minutes and the proteins were separated in 8% SDS-PAGE gels. The amount of p38 in each point was visualized by Coomassie Blue staining. Then the radioactivity in each p38 isoform was determined. […] FIG. 11B: In these same assays, the ability of MKK6CAM-activated GST-p38WT, GST-p38T123A and GST-p38T123D to phosphorylate 2 μg of GST-ATF2 is evaluated. The representative autoradiography (^32P) of the total GST-ATF2 control (Coomassie Blue) is attached.\nAs in the previous cases, the reactions were left to take place at 30° C. for 30 minutes and the proteins were resolved in 8% SDS-PAGE gels. With the purpose of assuring the inclusion of identical amounts of protein, they were visualized in the gel by Coomassie Blue staining. Subsequently, the radioactivity incorporated in each p38 isoform was determined."}, "[4]": {"system": "GST-ATF2", "test": "phosphorylation of GST-ATF2 by MKK6CAM-activated p38", "type": "biochemical", "details": "with MKK6CAM, 2 μg GST-ATF2", "protocol": "as §1\n(§2) The ATF2 and MEF2A forms bound to GST were used to test the catalytic activity of GST-p38. In most cases, 2 μg of GST-ATF2 or GST-MEF2A, of own production, were used. The phosphorylation conditions are the same as set forth in the foregoing cases. Nevertheless, in other occasions, relevantly pointed out in the Figures, 0.2 μg of substrate were used and the phosphorylation reaction was allowed to take pace for 15 minutes only."}, "[5]": {"system": "GST-MEF2A", "test": "phosphorylation of GST-MEF2A by p38", "type": "biochemical", "protocol": "FIG. 12A: In vitro phosphorylations are carried out with the fusion proteins indicated in the Figure, in the presence (+) or absence (−) of recombinant MKK6CAM(40 ng) and 2 μg of GST-MEF2A. The assay was left to take place for 30 minutes. The proteins were separated in 8% SDS-PAGE, stained with CBB and the incorporated radioactivity (^32P) was detected. Panels of a representative experiment of the three assays carried out independently are provided. FIG. 12B: The baseline activity of the three p38 fusion proteins in the absence of the MKK6CAM activator was evaluated in the previously described conditions. A representative autoradiography after a long exposure is shown.\nas §2"}, "[6]": {"system": "3T3-L1 cells", "test": "adipocyte differentiation of 3T3-L1 (Oil Red staining, adipocyte count)", "type": "cell-based", "details": "3T3L1 lines stably transfected, day 15", "excerpt": "3T3L1 lines stably transfected with pCDNA3-GRK2 and pCDNA3-GRK2K220R were made. GRK2 (anti-GRK2) expression controls obtained in cell lines, compared to 3T3L1 levels, are included. The cells were subjected to a standard differentiation treatment and on day 15 of the latter, the cells were fixed with formalin and stained with Oil Red, a lipophilic coloring which binds to the fats accumulated by the adipocytes. The cells with adipocytic phenotype (in red) were counted under microscope in a total of 25 fields. Representative photographs of two independent experiments are shown in duplicate. A photo of the 3T3L1 cells, free of stimulation with insulin during the differentiation process (control), is also included. The graph reflects the adipocyte count (±SEM) in these experiments.\nThe cell culture was carried out with 10% DMEM medium of NCS serum. However, the entire differentiation process which is described below must be performed in depleted AXC serum (ion exchange resin) by means of successive adsorptions of fetal calf serum on an anion exchange resin and on active carbon. AXC serum was provided by the kitchen service of the Instituto of Investigaciones Biomédicas (Biomedical Research Institute). The cells are grown until their confluence and are plated (5×10^5 in P-100) in DMEM-10% AXC medium, supplemented with 4 μM of biotin (Sigma). The following day, the medium is replaced with fresh medium. The cells are grown another three days, until confluence is reached again, that day is called day “0”. On day 0 of differentiation, the cells are cultured in a medium containing: 0.5 μM dexamethasone (Sigma), 0.5 mM 3-isobutyl-1-methylxanthine (IMBX, of Sigma) and 1 μM insulin (Sigma) and in which they will remain for another three days. […] From day 6 to day 15, the adipogenesis was analyzed by staining with Oil Red, a red coloring of lipophilic constitution which binds to the drops of fat accumulated by the adipocytes in their cytoplasm. […] The cells are counted in a total of 25 fields per each experimental plate."}, "[7]": {"target": "GST-p38T123D"}}, "data": [{"molecule": "CC(C)NCC(O)c1ccc(O)c(O)c1", "note": "(stereo not shown) [isoproterenol]", "values": [{"measurement": "p38 activation (anti-phospho-p38)", "setting": "[1]; 10 μM", "value": "not very strong"}, {"measurement": "association between GRK2 and p38 (co-immunoprecipitation)", "setting": "[1]; 10 μM, 0, 5 or 10 minutes", "value": "maximum association is obtained five minutes after exposure"}]}, {"molecule": "GST-280-360 p38α: truncated protein corresponding to the last 80 amino acids of p38α, fused to GST (protein, left off: a dimerising Fc or GST, truncated protein corresponding to the last 80 amino acids of p38α, fused to GST) AVDLLEKMLVLDSDKRITAAQALAHAYFAQYHDPDDEPVADPYDQSFESRDLLIDEWKSLTYDEVISFVPPPLDQEEMES", "values": [{"measurement": "ability to be a GRK2 substrate (32P incorporation)", "setting": "[2]", "value": "no trace whatsoever of phosphorylation"}]}, {"molecule": "p38T123A: p38α mutant form that cannot be phosphorylated by GRK2 (protein, UniProt P47811 2-360, looked up, variant T123A, GST fusion in some forms, p38α mutant form that cannot be phosphorylated by GRK2) Mitogen-activated protein …: SQERPTFYRQELNKTIWEVPERYQNLSPVGSGAYGSVCAAFDTKTGHRVAVKKLSRPFQSIIHAKRTYRELRLLKHMKHENVIGLLDVFTPARSLEEFNDVYLVTHLMGADLNNIVKCQKLADDHVQFLIYQILRGLKYIHSADIIHRDLKPSNLAVNEDCELKILDFGLARHTDDEMTGYVATRWYRAPEIMLNWMHYNQTVDIWSVGCIMAELLTGRTLFPGTDHIDQLKLILRLVGTPGAELLKKISSESARNYIQSLAQMPKMNFANVFIGANPLAVDLLEKMLVLDSDKRITAAQALAHAYFAQYHDPDDEPVADPYDQSFESRDLLIDEWKSLTYDEVISFVPPPLDQEEMES", "values": [{"measurement": "phosphorylation by MKK6CAM (32P)", "setting": "[3]", "value": "correctly phosphorylated by MKK6CAM"}, {"measurement": "catalytic activity on GST-ATF2", "setting": "[4]", "value": "phosphorylate it analogously"}, {"measurement": "ability to be a GRK2 substrate (32P incorporation)", "setting": "[2]", "value": "none of the two mutant is a GRK2 substrate"}, {"measurement": "baseline catalytic activity on MEF2A", "setting": "[5]; absence of the activating kinase MKK6, long exposure", "value": "middle ground between p38αWT and p38Tα123D"}, {"measurement": "catalytic activity on MEF2A", "setting": "[5]; with MKK6CAM, 2 μg GST-MEF2A", "value": "conserves the ability to phosphorylate this substrate"}]}, {"molecule": "K220R: catalytically inactive GRK2-K220R mutant (protein) MADLEAVLADVSYLMAMEKSKATPAARASKKILLPEPSIRSVMQKYLEDRGEVTFEKIFSQKLGYLLFRDFCLKHLEEAKPLVEFYEEIKKYEKLETEEERLVCSREIFDTYIMKELLACSHPFSKSAIEHVQGHLVKKQVPPDLFQPYIEEICQNLRGDVFQKFIESDKFTRFCQWKNVELNIHLTMNDFSVHRIIGRGGFGEVYGCRKADTGKMYAMRCLDKKRIKMKQGETLALNERIMLSLVSTGDCPFIVCMSYAFHTPDKLSFILDLMNGGDLHYHLSQHGVFSEADMRFYAAEIILGLEHMHNRFVVYRDLKPANILLDEHGHVRISDLGLACDFSKKKPHASVGTHGYMAPEVLQKGVAYDSSADWFSLGCMLFKLLRGHSPFRQHKTKDKHEIDRMTLTMAVELPDSFSPELRSLLEGLLQRDVNRRLGCLGRGAQEVKESPFFRSLDWQMVFLQKYPPPLIPPRGEVNAADAFDIGSFDEEDTKGIKLLDSDQELYRNFPLTISERWQQEVAETVFDTINAETDRLEARKKTKNKQLGHEEDYALGKDCIMHGYMSKMGNPFLTQWQRRYFYLFPNRLEWRGEGEAPQSLLTMEEIQSVEETQIKERKCLLLKIRGGKQFVLQCDSDPELVQWKKELRDAYREAQQLVQRVPKMKNKPRSPVVELSKVPLIQRGSANGL", "values": [{"measurement": "acquisition of the adipocytic morphology mediated by insulin", "setting": "[6]", "value": "stimulates it"}]}, {"molecule": "purified MKK6 (recombinant MKK6CAM, Upstate Biotech) (protein) MSQSKGKKRNPGLKIPKEAFEQPQTSSTPPRDLDSKACISIGNQNFEVKADDLEPIMELGRGAYGVVEKMRHVPSGQIMAVKRIRATVNSQEQKRLLMDLDISMRTVDCPFTVTFYGALFREGDVWICMELMDTSLDKFYKQVIDKGQTIPEDILGKIAVSIVKALEHLHSKLSVIHRDVKPSNVLINALGQVKMCDFGISGYLVDEVAKEIDAGCKPYMAPERINPELNQKGYSVKSDIWSLGITMIELAILRFPYDSWGTPFQQLKQVVEEPSPQLPADKFSAEFVDFTSQCLKKNSKERPTYPELMQHPFFTLHESKGTDVASFVKLILGD", "values": [{"measurement": "phosphorylation by MKK6CAM (32P incorporation)", "setting": "[7]", "value": "GST-p38T123D is a much worse MKK6CAM substrate than the other two p38"}]}]}
